Assay results published in patent publication US20080233097A1, “Phosphorylation Site Of Mitogen-Activated Protein Kinases, Modified Proteins And Applications” (UNIVERSIDAD AUTONOMA DE MADRID, priority 2005, published 2008).

Tests used:
MKK6CAM [1] = test: p38 phosphorylation by MKK6CAM in vitro; assay type: biochemical; conditions: 150 nM fusion protein, 40 ng MKK6CAM
Experimental: (§1) The reactions were carried out at 30° C. for 30 minutes and the proteins were separated in 8% SDS-PAGE gels. The amount of p38 in each point was visualized by Coomassie Blue staining. Then the radioactivity in each p38 isoform was determined. […] FIG. 11B: In these same assays, the ability of MKK6CAM-activated GST-p38WT, GST-p38T123A and GST-p38T123D to phosphorylate 2 μg of GST-ATF2 is evaluated. The representative autoradiography (^32P) of the total GST-ATF2 control (Coomassie Blue) is attached.
As in the previous cases, the reactions were left to take place at 30° C. for 30 minutes and the proteins were resolved in 8% SDS-PAGE gels. With the purpose of assuring the inclusion of identical amounts of protein, they were visualized in the gel by Coomassie Blue staining. Subsequently, the radioactivity incorporated in each p38 isoform was determined.

MKK6 = test: GST pull-down of purified MKK6; assay type: binding; conditions: GST-p38 300 nM, MKK6 3 nM; vs T123A mutant or wild type
Experimental: Purified GST-p38 and its T123 mutants (300 nM) were incubated in the presence of purified MKK6 (3 nM) or His-tagged MAPKAPK2 ([…], 20 nM) in a pull down assay with GST as a negative control. Sedimented proteins were developed by Western Blot using anti-MKK6, anti-Histidine (for His-MK2) or anti-GST (for total amounts of GST-p38s) antibodies. In all panels, results are representative of three independent experiments performed in duplicate.
The proteins GST, GST-p38 wt, GST-p38T123A and GST-p38T123D were bacterially expressed and isolated using Gluthatione-Sepharose 4B (GE-Amersham) following standard procedures (Murga, C. et al. High affinity binding of beta-adrenergic receptor kinase to microsomal membranes. Modulation of the activity of bound kinase by heterotrimeric G protein activation. J Biol Chem 271, 985-994 (1996)). His-MAPKAPK2 was purified using Probond resin (Invitrogen) following manufacturer's indications. MKK6CAM was purchased from Upstate Biotech. The amount of proteins detailed in the legend to each figure were incubated in binding buffer (25 mM Tris pH 7.5, 0.25 M NaCl, 10 mM MgCl2, 5 mM NaF and 0.5% BSA) for 30 min at 30° C. with constant shaking. ATP (50 μM) was added for MAPKAPK2 pull downs. Precipitates were washed three times (10 ml) with the same buffer containing 0.5% Triton X100. Precipitated complexes were resolved by SDS-PAGE and developed by Western Blot.

GST-ATF2 = test: phosphorylation of GST-ATF2 by MKK6CAM-activated p38; assay type: biochemical; conditions: with MKK6CAM, 2 μg GST-ATF2
Experimental: as §1
(§2) The ATF2 and MEF2A forms bound to GST were used to test the catalytic activity of GST-p38. In most cases, 2 μg of GST-ATF2 or GST-MEF2A, of own production, were used. The phosphorylation conditions are the same as set forth in the foregoing cases. Nevertheless, in other occasions, relevantly pointed out in the Figures, 0.2 μg of substrate were used and the phosphorylation reaction was allowed to take pace for 15 minutes only.

MKK6CAM [2] = test: p38 activation by MKK6CAM in situ (anti-phospho-p38) in HEK293 cells; assay type: cell-based, human; conditions: HEK293, 150 ng p38 plasmid, 50 ng pCDNA3-MKK6CAM
Experimental: In overexpression experiments analogous to those described previously, HEK293 cells, seeded in M6 and always in duplicate, were transfected with: 150 ng of pCDNA3-Flag-p38α WT, or pCDNA3-Flag-p38α T123D and 50 ng of pCDNA3-MKK6CAM, (or empty pCDNA3). p38 activation with the anti-phospho-p38 antibody was evaluated. For each of the two isoforms, the activation by MKK6CAM was in reference to the baseline situation, obtaining a certain activation level. 100% activation was established as the p38α WT activation in each experiment. Data (±SEM) of three independent experiments are shown. A two-sided Student's-t test was carried out and *p<0.0001 was obtained. The right-hand side panels (Western blot) illustrate one of the experiments. […]
The HE 293 cells, generally subjected to starvation (medium without serum) of a variable duration: 2 hours in the case of p38 and all night in the case of ERK, were stimulated and, after processing the lysate cells, the immunodetection of the phosphoproteins was carried out with the phospho-specific antibodies of the activation segments of both proteins. […] The quantification of the bands was carried out in a laser densitometer. In all the cases, the values obtained for the bands detected with the anti-phospho-protein antibody were normalized in relation to the total amount of p38 or ERK expressed in the cells. […]

GST-MEF2A = test: phosphorylation of GST-MEF2A by p38; assay type: biochemical; conditions: with MKK6CAM, 2 μg GST-MEF2A
Experimental: FIG. 12A: In vitro phosphorylations are carried out with the fusion proteins indicated in the Figure, in the presence (+) or absence (−) of recombinant MKK6CAM(40 ng) and 2 μg of GST-MEF2A. The assay was left to take place for 30 minutes. The proteins were separated in 8% SDS-PAGE, stained with CBB and the incorporated radioactivity (^32P) was detected. Panels of a representative experiment of the three assays carried out independently are provided. FIG. 12B: The baseline activity of the three p38 fusion proteins in the absence of the MKK6CAM activator was evaluated in the previously described conditions. A representative autoradiography after a long exposure is shown.
as §2

B1: p38T123D: p38α mutant; aspartic acid mimics the constitutively phosphorylated form of threonine 123 (protein, UniProt P47811 2-360, looked up, variant T123D)
Mitogen-activated protein …: SQERPTFYRQELNKTIWEVPERYQNLSPVGSGAYGSVCAAFDTKTGHRVAVKKLSRPFQSIIHAKRTYRELRLLKHMKHENVIGLLDVFTPARSLEEFNDVYLVTHLMGADLNNIVKCQKLDDDHVQFLIYQILRGLKYIHSADIIHRDLKPSNLAVNEDCELKILDFGLARHTDDEMTGYVATRWYRAPEIMLNWMHYNQTVDIWSVGCIMAELLTGRTLFPGTDHIDQLKLILRLVGTPGAELLKKISSESARNYIQSLAQMPKMNFANVFIGANPLAVDLLEKMLVLDSDKRITAAQALAHAYFAQYHDPDDEPVADPYDQSFESRDLLIDEWKSLTYDEVISFVPPPLDQEEMES
modifications: GST or Flag tag in some forms
MKK6CAM [1]
  phosphorylation by MKK6CAM (32P): much worse MKK6CAM substrate than the other two p38
MKK6
  ability to associate to MKK6: severely impaired
GST-ATF2
  catalytic activity on GST-ATF2: lacks the most minimum catalytic activity
MKK6CAM [2]
  activation by MKK6CAM versus Flag-p38WT: considerable reduction
GST-MEF2A
  catalytic activity on MEF2A: completely abolished
